Results reported in US20120047604.

Tested on: casein

## GST-WKS1_Kinase fusion protein
  in-gel kinase activity: The WKS1 Ser/Thr kinase domain (pfam00069) was confirmed to have kinase activity (FIG. 17)
